In assay [1] the target is T1, human MerTK-his protein (human, UniProt Q12866 21-505).
T1 construct: extracellular domain; also called hMerTK-His; human MerTK protein
T1 sequence (looked up): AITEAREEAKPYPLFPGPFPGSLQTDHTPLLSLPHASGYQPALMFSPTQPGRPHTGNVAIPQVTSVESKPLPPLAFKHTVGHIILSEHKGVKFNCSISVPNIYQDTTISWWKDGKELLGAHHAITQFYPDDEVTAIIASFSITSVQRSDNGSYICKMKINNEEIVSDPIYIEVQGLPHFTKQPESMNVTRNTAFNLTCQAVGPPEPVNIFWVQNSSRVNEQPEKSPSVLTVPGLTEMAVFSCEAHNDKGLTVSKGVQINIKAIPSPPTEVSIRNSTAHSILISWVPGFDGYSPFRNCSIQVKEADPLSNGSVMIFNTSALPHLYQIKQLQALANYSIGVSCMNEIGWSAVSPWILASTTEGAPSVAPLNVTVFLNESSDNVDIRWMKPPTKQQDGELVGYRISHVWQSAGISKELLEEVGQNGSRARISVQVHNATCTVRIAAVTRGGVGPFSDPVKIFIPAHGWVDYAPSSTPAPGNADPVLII
The experiment in a line: ELISA, plate coated with human MerTK-his, OD 450nm. As for the experimental part: (§1) To evaluate the binding activity, the chimeric mAbs were subjected to ELISA test. Briefly, 96-well plates were coated with human or cyno MerTK-his protein at 2 μg/mL in PBS, 100 μL/well at 4° C. overnight, then blocked with 150 μL/well of 1% BSA. Five-fold dilutions of MerTK antibodies starting from 20 nM were added to each well and incubated for 1 hour at room temperature. The plates were washed with PBS/Tween-20 and then incubated with goat anti-human IgG Fe antibody conjugated with Horse Radish Peroxidase (HRP) for 30 minutes (mins) at room temperature. After washing, the plates were developed with TMB substrate and subsequent stop solution was added to complete the reaction. The signal from each well was read by spectrophotometer at OD 450 nm.
(§2) To evaluate the antigen binding activity, the humanized antibodies were subjected to ELISA test as described before.
(In general: In an ELISA, binding on a coated surface is turned into a signal by an enzyme label.)

For assay [2], the target named is T1, human MerTK-his protein. The assay is described as follows: SPR Biacore 8K, antibody captured on Protein A chip, 50 nM antigen. As for the experimental part:
To explore whether the humanized antibodies could maintain their binding kinetics, affinity ranking were performed with Biacore™. The antibodies were captured with a Protein A chips. Human MerTK-his protein at 50 nM was injected over captured antibodies for 180 s at a flow rate of 30 μL/min. The antigen was allowed to dissociate for 600 s. The experiment was carried out on a Biacore™ 8K. Data analysis was carried out using Biacore™ 8K evaluation software.

Assay [3] addresses T2, human MerTK expressed on cells (human, UniProt Q12866 21-999).
T2 construct: whole, on cells; also called CHO-K1-hMerTK; CHO-K1-MerTK
T2 sequence (looked up): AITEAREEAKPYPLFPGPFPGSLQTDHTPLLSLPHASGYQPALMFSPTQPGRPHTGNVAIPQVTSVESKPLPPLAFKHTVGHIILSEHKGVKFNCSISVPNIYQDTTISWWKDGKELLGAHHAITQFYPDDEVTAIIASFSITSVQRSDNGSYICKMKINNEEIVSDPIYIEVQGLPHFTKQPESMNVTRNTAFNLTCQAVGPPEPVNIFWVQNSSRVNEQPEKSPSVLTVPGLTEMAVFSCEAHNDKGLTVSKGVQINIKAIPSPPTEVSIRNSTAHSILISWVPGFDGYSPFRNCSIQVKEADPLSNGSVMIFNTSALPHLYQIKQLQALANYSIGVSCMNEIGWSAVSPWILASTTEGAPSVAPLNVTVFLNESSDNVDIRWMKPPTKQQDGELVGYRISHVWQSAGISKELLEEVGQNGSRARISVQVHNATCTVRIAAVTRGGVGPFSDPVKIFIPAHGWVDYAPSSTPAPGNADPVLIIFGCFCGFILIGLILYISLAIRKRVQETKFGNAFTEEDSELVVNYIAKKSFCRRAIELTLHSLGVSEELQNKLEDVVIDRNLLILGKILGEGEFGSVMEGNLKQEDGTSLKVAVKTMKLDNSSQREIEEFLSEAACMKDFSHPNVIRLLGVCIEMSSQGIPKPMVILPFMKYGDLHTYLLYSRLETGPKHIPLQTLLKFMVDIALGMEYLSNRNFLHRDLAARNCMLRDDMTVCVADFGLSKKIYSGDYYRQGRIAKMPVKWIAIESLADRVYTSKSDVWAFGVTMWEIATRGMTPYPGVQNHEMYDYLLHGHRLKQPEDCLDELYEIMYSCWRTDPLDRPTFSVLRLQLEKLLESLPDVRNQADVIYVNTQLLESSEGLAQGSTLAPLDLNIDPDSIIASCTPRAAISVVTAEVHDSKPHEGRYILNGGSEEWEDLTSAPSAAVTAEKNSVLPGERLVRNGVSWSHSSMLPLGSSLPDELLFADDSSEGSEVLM
The assay is described as follows: FACS on CHO-K1 cells overexpressing human MerTK, MFI (AF488).

Assay [4] deals with T2, human MerTK expressed on cells. The description is as above. This is another data set of the same source.
Assay [5] deals with T1, human MerTK-his protein. The experiment in a line: ELISA, plate coated with human MerTK-his, OD 450nm. How it is done:
as §1, §2
The source holds these as a separate data set.

These results are taken from patent publication US20260028422A1 (CONCEPT TO MEDICINE BIOTECH, published 2026).

Like-named read-outs stand apart in the source and are kept apart here.

B1: 265F11B5Hu-11 (antibody, V domains shown)
VH: QVQLVQSGAEVKKPGASVKVSCKASGYTFTTYDINWVRQAPGQGLEWIGWIYPRDGYTKYNEKFKGRATMTTDTSTSTAYMELRSLRSDDTAVYFCTRGYYDNLYYFDYWGQGTTVTVSS
VL: EIVLTQSPDFQSVTPKEKVTITCSASSIISSNYFHWYQQKPDQSPKLLIYRTSNLASGVPSRFSGSGSGTDYTLTINSLEAEDAATYYCQQGRSVPLTFGQGTKLEIK
Broadly, the EC50 is the concentration needed to bring the measured effect to its halfway point. Low values mean a more potent agent, high ones a less potent agent. As usually defined, the Kd is the equilibrium constant for the complex coming apart. The koff is the first-order rate constant of dissociation. Low readings indicate slow dissociation, high ones fast dissociation. By kon is commonly meant the second-order rate constant of association. Read a high kon as faster complex formation. B1: in assay [1], it took 0.042 nM to reach a half-maximal effect (EC50). Also, in assay [2], binding was put at a Kd of 1.94 nM, the koff was determined as 0.000378 s⁻¹ and the association rate constant (kon) stood at 195000 M⁻¹ s⁻¹. In assay [3], this molecule had a concentration giving a half-maximal response (EC50) of 0.22 nM.

B2: 265F11B5Hu-12 (antibody, V domains shown)
VH: QVQLVQSGAEVKKPGASVKVSCKASGYTFTTYDINWVRQAPGQGLEWIGWIYPRDGYTKYNEKFKGRATLAVDTSTSTAYMELRSLRSDDTAVYFCTRGYYDNLYYFDYWGQGTTVTVSS
VL: EIVLTQSPDFQSVTPKEKVTITCSASSIISSNYFHWYQQKPDQSPKLLIYRTSNLASGVPSRFSGSGSGTDYTLTINSLEAEDAATYYCQQGRSVPLTFGQGTKLEIK
The molecule B2 showed an EC50 in assay [1] of 0.052 nM. In assay [2], this molecule registered a dissociation constant (Kd) of 1.64 nM, a koff of 0.00031 s⁻¹ and an association rate constant (kon) of 189000 M⁻¹ s⁻¹. Also, the EC50 in assay [3] was determined as 0.19 nM.

B3: 254B4D9Hu-1 (antibody, V domains shown)
VH: QVQLVQSGSELKKPGASVKVSCKASGYTFTAYGMSWVKQAPGQGLQWMGWINTYSGVPTYTDDFKGRFVFSLDTSVSTAFLQISSLKAEDTAVYFCARRAAVVAKYWYFDVWGQGTTVTVSS
VL: DIQMTQSPSSLSASVGDRVTITCKSSQDINKRISWYQQKPGKAPKLLIHSTSSLQPGVPSRFSGSGSGRDFTFTISSLQPEDIATYFCLQYDNLLTFGQGTKLEIK
As to B3, in assay [4], the EC50 was found to be 0.85 nM. Moreover, a half-maximal effect in assay [5] (EC50) was put at 0.094 nM. Further, in assay [2], the Kd was found to be 2.19 nM, the koff worked out at 0.000475 s⁻¹ and the kon turned out to be 217000 M⁻¹ s⁻¹.

B4: 254B4D9Hu-2 (antibody, V domains shown)
VH: QVQLVQSGHEVKQPGASVKVSCKASGYSFTAYGMSWVKQAPGQGLQWMGWINTYSGVPTYTDDFKGRFVFSLDTSASTAFLQISSLKAEDMAMYFCARRAAVVAKYWYFDVWGQGTTVTVSS
VL: DIQMTQSPSSLSASVGDRVTITCKSSQDINKRISWYQQKPGKAPKLLIHSTSSLQPGVPSRFSGSGSGRDFTFTISSLQPEDIATYFCLQYDNLLTFGQGTKLEIK
On to B4, for which it took 1.1 nM to reach a half-maximal effect in assay [4] (EC50). In assay [5], this molecule showed an EC50 of 0.064 nM. In assay [2], this molecule displayed a dissociation constant (Kd) of 10.9 nM, a koff of 0.000592 s⁻¹ and a kon of 54100 M⁻¹ s⁻¹.
